Assay results from the supplement of paper PMC12042874.
± gives the uncertainty stated by the source.

Test: amyloid nucleation score (Sup35N fusion, yeast selection) (log enrichment); library NNK2; higher = more nucleation; inactive = no reads after selection
In short: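 In psi-negative yeast, Sup35N fusions carrying peptides of 20 random codons were induced with 100 μM copper sulfate for 24 hours. The cells then grew 7 days at 30°C on medium lacking adenine and uracil, and plasmid inserts from input and output were Illumina-sequenced, excluding sequences with under 100 input reads. Nucleation score is the DiMSum log enrichment of output over input reads, centred on the mode score of non-aggregating sequences.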

Row | Substance | amyloid nucleation score
1 | SAHLYALGNSRHFIYVPVEL | inactive
2 | SNDLTCTYVRIQCWAMEPAS | 5.142 ± 0.039
3 | VPIKGHNRHMMNYNSEKAGS | -1.13 ± 0.76
4 | PSGFVVLGSLCGMIFVRVTK | -0.974 ± 0.49
5 | NPGETDQRQSWSCSDCPAFS | 1.51 ± 0.35
6 | SGRHVNVLYYNFNGPDDQFK | 6.866 ± 0.029
7 | KYEIRAASARGGSNVCFCIG | 0.691 ± 0.19
8 | SFKVMYKENNTNLGSLLWDG | 0.049 ± 0.21
9 | SVLAFKSFGSHCIGYIYVNL | inactive
10 | FPMFSYTSMHYGH | 1.83 ± 0.17
11 | IKKGRWAYGPSLVCKNAMRE | 0.799 ± 0.74
12 | MNMSEMSAYHFLFSGGSKLR | -0.21 ± 0.44
13 | LSMEVRGMVATMVVTWNFVS | 0.07 ± 0.32
14 | LTPEFSVCGCRTEG | 2.65 ± 0.072
15 | NGMFLRTRCIRVFAVRRMLQ | 1.12 ± 0.26
16 | LSYYKVIWGHLMVKYPTYRQ | -0.177 ± 0.32
17 | FMSVFTSAFLISHIMLV | 0.21 ± 1
18 | HDRVIRQN | 0.084 ± 0.26
19 | SLSCSESGVKNRKVVELGWM | 0.432 ± 0.32
20 | NNQYINWMRKCG | -0.671 ± 0.41
21 | DGSHYFIVRDPVNSCLSSWV | -0.668 ± 0.36
22 | PATLAKIYSVGVGNYHRFVR | inactive
23 | CSQVALLNKLFLPG | -1.14 ± 0.38
24 | PTMEPVVHITLDCVYKDF | inactive
25 | VYLVRKWRSGWRYLTRVI | 1.24 ± 0.41

Row | Substance | amyloid nucleation score
26 | MSILTCVPGTNIINSQW | inactive
27 | FWLNMYSVETVYGVVFAWEK | -0.694 ± 0.31
28 | WHFSRSWDPKFWRRAHSWWE | 0.276 ± 0.5
29 | VYFMCLWGFI | -0.453 ± 1.1
30 | TLPVPPGCRFVEITV | 0.293 ± 0.53
31 | GVPLLLRMTCSLCRIAFQE | 4.28 ± 0.069
32 | FLIFSYIGLFSVISYRSARV | inactive
33 | SLGNVELRQ | -0.679 ± 0.29
34 | SMDRLRRDGYLGSVVCYNRS | -0.935 ± 0.54
35 | MSYGNAYNTPKCDKHSVIPY | 0.738 ± 0.37
36 | RVDGDYSSARRGGLISKWAF | 0.804 ± 0.5
37 | CLSCANL | 0.486 ± 0.66
38 | CTTYPAFLSSGNPNFIMRFL | -0.148 ± 0.51
39 | VFMTSLY | -1.06 ± 0.49
40 | YYMTRVSPFQSFIVIMGASQ | 1.89 ± 0.24
41 | LVSYSDVGWPLYWFCSVRVP | 1.24 ± 0.2
42 | FISSSYSKEFSIYEFIDIFR | -0.539 ± 0.54
43 | SNWCGFSSTIKSESY | inactive
44 | NKFKG | 0.19 ± 1.1
45 | TDVAY | 0.258 ± 0.2
46 | FVYWFKYT | -1.2 ± 1.1
47 | HKWWSAPGSLAS | -0.038 ± 0.79
48 | GVEVKSNVWTVSGWESQTPQ | 1.89 ± 0.42
49 | LRKALIDAFRT | 2.18 ± 0.066
50 | DYSSVVYNDGIWKGAPNFK | -2.05 ± 0.78

Row | Substance | amyloid nucleation score
51 | FKFKLGNGIMDGSRMGHWAL | 1.17 ± 0.47
52 | FGCNSSGWNVKIPSGGLGNE | -0.647 ± 0.53
53 | LAGGCRRTPAVINRLFVKTA | 0.374 ± 0.4
54 | EDIGSGGKTRFLDRRWVFCN | inactive
55 | GPWAAVVRGFCPKGDKRSCG | -0.304 ± 0.41
56 | IMRCGMLVASKFQGEGRNRT | 0.747 ± 0.43
57 | VSVWYGGLVRVRSTWCKIKF | 1.13 ± 0.13
58 | WLKYMSCSLAKSQVSACVSV | 0.219 ± 0.46
59 | SLCPRYYGF | inactive
60 | CTRSFVTQSDEDSPIGSDR | -1.39 ± 0.38
61 | RGLTKLSVLFRQNKESYNIV | -0.521 ± 0.76
62 | CSIPCCVGHTLSLGRQFVFV | 0.13 ± 0.43
63 | MRFSCWADIVRGDLIPHFVV | 2.84 ± 0.09
64 | RLDRVIFY | 1.85 ± 0.099
65 | MHEAH | 0.439 ± 0.46
66 | YDSTVFTITWAKWDVYSLST | 2.36 ± 0.096
67 | RFVKTGYTYDLVGTVLHCLS | 5.97 ± 0.054
68 | CDANM | 0.785 ± 0.51
69 | FKILFLAHRLTGLFKSSTGF | inactive
70 | IDSDSFHDRSTSRHLFNGLA | inactive
71 | GCNIRTNVGRLCMSYPDSNR | 0.636 ± 0.18
72 | SMASGILCDAAYNACSQGCG | 0.632 ± 0.48
73 | HNSNYHIYGWVMVRRRIGYI | inactive
74 | MIRTHLRRIYNS | -1.26 ± 0.37
75 | TLMCFYYFEQ | 9.395 ± 0.053

Row | Substance | amyloid nucleation score
76 | NDVGSLWVIADVGIFYVQDK | -0.662 ± 0.61
77 | DMHCFSEGRHGGLTCAGCLR | 1.1 ± 0.19
78 | NVDWCCQICSCFTRIFELLM | 2.21 ± 0.23
79 | PMFNEHRFSR | 2.37 ± 0.1
80 | TNCHLFVSFFLCVDVYTVVC | 4.72 ± 0.063
81 | SGDFI | inactive
82 | WSGKRAFNYINGGLGMAKEL | 4.11 ± 0.062
83 | WGWEIFIVWTWLRGVILYVL | -0.602 ± 1.1
84 | AIRGTECYWLAWVGLAVKRR | 1.12 ± 0.23
85 | NLSYDHPACCKWNRCYVKHR | 1.81 ± 0.14
86 | RMVRGLAFGDFWASSMRKYP | 0.241 ± 0.33
87 | WEIRNAYVQVT | -0.178 ± 0.39
88 | RVGRSSKLWGFREYTSRKFG | 0.28 ± 0.77
89 | FSVRLSELSMTNLSTQYEIS | 1.82 ± 0.15
90 | TGTFRIAWM | 6.64 ± 0.063
91 | PGVPP | -1.06 ± 1.1
92 | PIKYIVFSVLSCRRCLGNSM | 0.651 ± 0.48
93 | QFSLLDHITCQPLPTLFLS | 7.91 ± 0.065
94 | CSLAFVHRAIFSMSLLHSET | 0.136 ± 0.4
95 | EYNDRCV | 0.974 ± 0.28
96 | LTMLPDNVPTKALFSYLSVT | -1.24 ± 0.76
97 | ILGDNRLKPVTLSRNVALYY | -1.18 ± 0.78
98 | HKGFEPVGRGYALCSTWLVV | 6.37 ± 0.074
99 | QSYRVPKLFMNAAE | 0.197 ± 0.57
100 | GAEFTFGLFTYEFGIGQG | 0.285 ± 0.57

Row | Substance | amyloid nucleation score
101 | QMIFGYQHRAALDIMNGVPD | inactive
102 | SGCTGFCRRGPVRCWGSCLL | inactive
103 | FHVKIGW | -0.086 ± 0.33
104 | DFLWTFVGNFLE | -1.43 ± 0.78
105 | FCESCKWNL | 1.29 ± 0.14
106 | SWDHDYCGRWWCSNARGKIN | 4.3 ± 0.07
107 | PSLRV | 1.08 ± 0.42
108 | IIMPF | -0.682 ± 0.64
109 | LHIRVLSQVRLCDDWRASAS | -0.016 ± 0.33
110 | MAVLEMRDRWCDLLLTTSRV | 0.155 ± 0.21
111 | SFLSRL | -0.4 ± 0.65
112 | FFFVFVGDVR | 2.08 ± 0.15
113 | VISQRLFS | -0.155 ± 0.74
114 | YQSVRK | -0.022 ± 0.55
115 | RLRIMYSTLLATGMV | 0.178 ± 0.5
116 | TIGRGYGSISQRHAIRLGDN | 0.164 ± 0.8
117 | LYIET | -1.28 ± 0.63
118 | SLVIYV | -1.42 ± 0.62
119 | PKQDTA | -0.967 ± 0.36
120 | QRARTRYGLRSLSYSAYIWS | 0.807 ± 0.17
121 | NLLTPFRLRPKTHLDLYRSC | -0.196 ± 1.1
122 | FLWYGISVI | 0.02 ± 0.4
123 | QYMLLMMC | 0.671 ± 0.6
124 | LSHEFMIEW | -0.19 ± 0.62
125 | STWHLFWSP | 0.654 ± 0.26

Row | Substance | amyloid nucleation score
126 | HSPNCYKMSGRFLCD | -1.77 ± 0.54
127 | SWWIGASEVVHGSKSEGI | -0.357 ± 1.1
128 | SYWGQIGRSHTSCLCPSDQV | inactive
129 | RVSESLPSTD | -0.219 ± 0.47
130 | LATWLP | 0.871 ± 0.21
131 | LGLTSHTVPKCRCVGLMLMV | 0.438 ± 0.29
132 | TVPTMVW | -0.124 ± 0.29
133 | WWSARYRGTLD | 1.57 ± 0.24
134 | ISIVYNSAMSIHHDFLILLC | 5.32 ± 0.094
135 | RLNRSMSSHHDRRHLEWSLS | 0.235 ± 0.19
136 | TAVVLTTGLHVIQVLWHN | 2.94 ± 0.12
137 | LLIFGVVLRVMNVVDPIRDI | -1.13 ± 0.55
138 | TIWVATLDFPNSYMSSALFV | 4.27 ± 0.093
139 | LFSLPPCFN | 1.5 ± 0.11
140 | KVANRYIK | 0.136 ± 0.32
141 | WMCRSTAMIHSRSDCV | 6.328 ± 0.052
142 | GFDSDMVPHRSSRAVLC | 1.33 ± 0.46
143 | LVNSKYDLGSSGSFDNRFAC | -0.242 ± 0.63
144 | TLMQSYVQFWYTLYSHNNWL | -0.698 ± 0.24
145 | FGKFFCCWSSLRNEKCYFAM | inactive
146 | ICQWRSWLKSTVIFCTRYDF | 3.37 ± 0.13
147 | NIMSFFHLSLGVDFVHVSPG | 0.144 ± 0.19
148 | LNFIRCYVSPCVSFLSLYII | inactive
149 | HVTWKNMIIDYLVP | 0.615 ± 0.6
150 | LRYRVMT | 1.23 ± 0.52

Row | Substance | amyloid nucleation score
151 | TACVSWGPSYWV | inactive
152 | RYVNVCYNSSAWGLFGTTHI | inactive
153 | LGFDASLKLFLVQQGLSN | -0.341 ± 0.33
154 | SLSVSTAVIVITLTNGEFIG | 2.64 ± 0.1
155 | SYHGVRLFDIHIGSLKFQQ | 7.549 ± 0.054
156 | LLSSFIALSWCWRWFKHSS | 4.972 ± 0.045
157 | SRPMTWGRKDVGSGSLQDYA | 0.248 ± 0.33
158 | LNDHNFLCPLTYKVRRLYNN | -1.53 ± 0.53
159 | SDERSGFRTSVRG | 0.479 ± 0.29
160 | LVSFGPLMDQGSCIALHSRR | 0.162 ± 0.31
161 | CKSFNSFSETPKYAKVVPRA | 0.633 ± 0.56
162 | ERMSLMGWDFIKCRISLAMS | -0.021 ± 0.65
163 | ELVRDASECRYIIVCLNSVA | -0.047 ± 0.65
164 | TVIGLLIIVVGSYDVCSNVW | 6.163 ± 0.041
165 | YSGWVSDS | inactive
166 | FGSVSSWELPRP | 0.197 ± 0.63
167 | ERNLLRNSDDMD | -0.642 ± 1.1
168 | VLNISMLLWIYNTYGNDGKV | 8.029 ± 0.08
169 | KFWLCDEGYWWNVASGLSSV | 0.845 ± 0.32
170 | GIYNVLS | -0.108 ± 1.1
171 | FRLAVFSEFQCFR | 1.9 ± 0.12
172 | WCAPWPWVKCLFTSPVFSVV | 0.712 ± 0.4
173 | LVRGMDFHLNLDEKFFSATL | -1.05 ± 0.56
